# From IntAct's records for PubMed 25096571
# B1: Forkhead box protein P3 (Homo sapiens), Q9BZS1-1 (parent)
# chain: MPNPRPGKPSAPSLALGPSPGASPSWRAAPKASDLLGARGPGGTFQGRDLRGGAHASSSSLNPMPPSQLQLPTLPLVMVAPSGARLGPLPHLQALLQDRPHFMHQLSTVDAHARTPVLQVHPLESPAMISLTPPTTATGVFSLKARPGLPPGINVASLEWVSREPALLCTFPNPSAPRKDSTLSAVPQSSYPLLANGVCKWPGCEKVFEEPEDFLKHCQADHLLDEKGRAQCLLQREMVQSLEQQLVLEKEKLSAMQAHLAGKMALTKASSVASSDKGSCCIVAAGSQGPVVPAWSGPREAPDSLFAVRRHLWGSHGNSTFPEFLHNMDYFKFHNMRPPFTYATLIRWAILEAPEKQRTLNEIYHWFTRMFAFFRNHPATWKNAIRHNLSLHKCFVRVESEKGAVWTVDELEFRKKRSQRPSRCSNPTPGP
# Variants of: B1
# Details: with PIM1, P11309-1
row,effect of a mutation on the interaction,Variant
1,decreasing interaction strength,S418A
2,increasing interaction strength,S418C
3,disrupting interaction strength,S418D
4,increasing interaction strength,S418G

# Variants of: B1
# Details: with PIM1, P11309-1
# Remark: another data set of the same source
row,effect of a mutation on the interaction,Variant
1,decreasing interaction strength,S422A
